Consider five molecules from publication PMC9234707.

Assay [1] has as its target BMPR2 GBD-Fc (WT) (human) (UniProt Q13873). Kind of assay: SPR; BIAcore 3000; receptor-Fc captured on immobilised anti-human IgG (Fc), CM5 chip; titration, global fit of 2.5, 5.0, 10.0, 20.0 and 40.0 nM GF injections; 25 °C; HBS/EPS (0.01 M Hepes, 0.5 M NaCl, 3 mM EDTA, 0.005% Tween 20, pH 7.4) with 0.1% bovine serum albumin; 50 μl/min; 1:1 binding model, KD = kd/ka. For orientation: SPR reads the build-up and loss of mass on a sensor chip optically.

The target in assay [2] is ACVR2A GBD-Fc (human) (UniProt P27037). Described as above.
Sequence of ACVR2A GBD-Fc (human) (P27037 whole entry): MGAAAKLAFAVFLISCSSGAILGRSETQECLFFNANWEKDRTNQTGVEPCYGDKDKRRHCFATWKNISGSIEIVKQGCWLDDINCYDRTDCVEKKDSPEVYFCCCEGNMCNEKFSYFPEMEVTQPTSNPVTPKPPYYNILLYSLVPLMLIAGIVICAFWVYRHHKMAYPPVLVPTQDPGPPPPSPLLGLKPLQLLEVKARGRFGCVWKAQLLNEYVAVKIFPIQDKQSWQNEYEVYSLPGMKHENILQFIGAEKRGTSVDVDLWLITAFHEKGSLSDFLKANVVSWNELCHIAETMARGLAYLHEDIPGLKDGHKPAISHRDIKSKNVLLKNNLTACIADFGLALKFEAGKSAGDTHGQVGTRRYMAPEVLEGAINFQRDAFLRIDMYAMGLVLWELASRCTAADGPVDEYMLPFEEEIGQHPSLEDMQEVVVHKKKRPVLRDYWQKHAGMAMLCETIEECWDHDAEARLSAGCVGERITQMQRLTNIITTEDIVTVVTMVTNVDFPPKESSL
The target of assay [3] is BMPR2-Fc variant G47D (human) (UniProt Q13873). Described as above.
The target in assay [4] is BMPR2 GBD-Fc (WT) (human) (UniProt Q13873). The description is as above. The source holds these as a separate data set.
Sequence of BMPR2 GBD-Fc (WT) (human) (Q13873 whole entry): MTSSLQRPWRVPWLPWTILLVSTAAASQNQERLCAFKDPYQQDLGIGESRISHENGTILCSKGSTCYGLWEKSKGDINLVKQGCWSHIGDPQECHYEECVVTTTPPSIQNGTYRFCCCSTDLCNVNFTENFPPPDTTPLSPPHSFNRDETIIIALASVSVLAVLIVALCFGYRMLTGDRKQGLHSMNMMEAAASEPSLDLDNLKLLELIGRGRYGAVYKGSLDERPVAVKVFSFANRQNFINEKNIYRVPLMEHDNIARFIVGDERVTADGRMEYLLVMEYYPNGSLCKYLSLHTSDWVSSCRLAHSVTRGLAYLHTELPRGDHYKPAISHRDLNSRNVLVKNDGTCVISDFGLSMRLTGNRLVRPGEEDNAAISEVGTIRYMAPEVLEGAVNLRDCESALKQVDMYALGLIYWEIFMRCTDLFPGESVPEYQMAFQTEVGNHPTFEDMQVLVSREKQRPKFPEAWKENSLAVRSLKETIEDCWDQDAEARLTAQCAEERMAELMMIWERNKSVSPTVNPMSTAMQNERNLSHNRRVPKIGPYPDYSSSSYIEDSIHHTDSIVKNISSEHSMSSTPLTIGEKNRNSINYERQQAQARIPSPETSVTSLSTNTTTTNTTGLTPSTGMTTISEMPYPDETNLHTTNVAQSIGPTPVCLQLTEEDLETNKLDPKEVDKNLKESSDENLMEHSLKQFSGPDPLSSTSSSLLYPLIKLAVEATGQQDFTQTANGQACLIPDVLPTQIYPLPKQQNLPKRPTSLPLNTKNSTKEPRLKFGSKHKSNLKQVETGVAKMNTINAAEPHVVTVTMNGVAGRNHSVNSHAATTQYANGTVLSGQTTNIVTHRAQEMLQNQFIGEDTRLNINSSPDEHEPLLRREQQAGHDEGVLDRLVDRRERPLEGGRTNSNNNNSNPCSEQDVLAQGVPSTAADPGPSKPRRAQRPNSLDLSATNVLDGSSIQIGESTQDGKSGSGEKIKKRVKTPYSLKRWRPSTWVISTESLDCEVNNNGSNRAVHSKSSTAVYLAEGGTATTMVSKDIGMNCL
For assay [5], the target named is BMPR2-Fc variant S107P (human) (UniProt Q13873). The assay is described as above.
Assay [6] deals with BMPR2-Fc variant Q92H (human) (UniProt Q13873). The assay is described as above.
The target of assay [7] is BMPR2-Fc variant Q42R (human) (UniProt Q13873). The description is as above.
For assay [8], the target named is BMPR2-Fc variant G47D (human) (UniProt Q13873). Briefly: SPR; BIAcore 3000; receptor-Fc (about 500 RU BMPR2-Fc WT or variants, 150 RU ACVR2A-Fc) captured on immobilised anti-human IgG (Fc), CM5 chip; single injections of 80 nM GF, single curve fits, averages of two independent injections; 25 °C; HBS/EPS (0.01 M Hepes, 0.5 M NaCl, 3 mM EDTA, 0.005% Tween 20, pH 7.4) with 0.1% bovine serum albumin; 50 μl/min; 1:1 binding model, KD = kd/ka.

Assay [9] has as its target BMPR2 GBD-Fc (WT) (human) (UniProt Q13873). The description is as above.
Assay [10] concerns the target BMPR2-Fc variant S107P (human) (UniProt Q13873). Described as above.
In assay [11] the target is BMPR2-Fc variant Q92H (human) (UniProt Q13873). Described as above.
In assay [12] the target is BMPR2-Fc variant Q42R (human) (UniProt Q13873). Described as above.
The target of assay [13] is BMPR2 GBD-Fc (WT) (human) (UniProt Q13873). Described as above. The source holds these as a separate data set.
Assay [14] deals with ACVR2A GBD-Fc (human) (UniProt P27037). Described as above.

B1: activin B (ligand)
chain: GLECDGRTNLCCRQQFFIDFRLIGWNDWIIAPTGYYGNYCEGSCPAYLAGVPGSASSFHTAVVNQYRMRGLNPGTVNSCCIPTKLSTMSMLYFDDEYNIVKRDVPNMIVEECGCA
By Kd is commonly meant the constant that tells how readily two partners part at equilibrium. High values mean a looser complex, low ones a tighter complex. Usually koff stands for the first-order rate constant of dissociation. A high value points to fast dissociation. Broadly, the kon is a measure of how fast the partners come together. A low value points to slow association. Consider B1, for which the Kd in assay [1] amounted to 0.71 nM; in assay [2], 0.0016 nM; in [3] it was 1.3 nM; in assay [5], 0.28 nM; in assay [6], 1.1 nM; in [7] it was 1.4 nM. In addition, the Kd came to 2.9 nM in assay [8]; 4.1 nM in assay [9]; 2.6 nM in [10]; 1.8 nM in assay [11]; 5 nM in assay [12]; 2.3 nM in assay [13]. This molecule also yielded a dissociation constant Kd in assay [14] of 0.053 nM. Besides, the koff is 0.00062 s⁻¹ in [1]; 9.7e-06 s⁻¹ in assay [2]; 0.00058 s⁻¹ in assay [3]; 0.00082 s⁻¹ in assay [4]; 0.00019 s⁻¹ in assay [5]; 0.00044 s⁻¹ in assay [6]. For the same molecule, the koff in [7] worked out at 0.00082 s⁻¹; in assay [8], 0.0013 s⁻¹; in [10], 0.0015 s⁻¹; in assay [11], 0.00072 s⁻¹; in assay [12], 0.0021 s⁻¹; in assay [13] it was 0.0018 s⁻¹. Further, the koff in assay [14] was found to be 7.4e-05 s⁻¹. In addition, the kon in [1] was determined as 880000 M⁻¹ s⁻¹; in assay [2] it was 6.1e+06 M⁻¹ s⁻¹; in assay [3], 430000 M⁻¹ s⁻¹; in assay [5], 670000 M⁻¹ s⁻¹; in assay [6], 400000 M⁻¹ s⁻¹; in assay [7], 580000 M⁻¹ s⁻¹. The kon in [8] stood at 440000 M⁻¹ s⁻¹; in assay [9], 470000 M⁻¹ s⁻¹; in assay [10], 610000 M⁻¹ s⁻¹; in assay [11], 400000 M⁻¹ s⁻¹; in assay [12], 420000 M⁻¹ s⁻¹; in [13], 790000 M⁻¹ s⁻¹. This molecule also came in with a kon in [14] of 1.4e+06 M⁻¹ s⁻¹.

B2: GDF11 (ligand)
chain: NLGLDCDEHSSESRCCRYPLTVDFEAFGWDWIIAPKRYKANYCSGQCEYMFMQKYPHTHLVQQANPRGSAGPCCTPTKMSPINMLYFNDKQQIIYGKIPGMVVDRCGCS
Take B2: in assay [14], the Kd came out at 0.052 nM, the koff is 0.00018 s⁻¹ and the association rate constant (kon) is 3.5e+06 M⁻¹ s⁻¹.

B3: Nodal (ligand)
chain: HHLPDRSQLCRKVKFQVDFNLIGWGSWIIYPKQYNAYRCEGECPNPVGEEFHPTNHAYIQSLLKRYQPHRVPSTCCAPVKTKPLSMLYVDNGRVLLDHHKDMIVEECGCL
In [13], B3 had a Kd of 3.2 nM, a koff of 0.00014 s⁻¹ and a kon of 42000 M⁻¹ s⁻¹.

B4: BMP10 (ligand)
chain: NAKGNYCKRTPLYIDFKEIGWDSWIIAPPGYEAYECRGVCNYPLAEHLTPTKHAIIQALVHLKNSQKASKACCVPTKLEPISILYLDKGVVTYKFKYEGMAVSECGCR
Take B4: the Kd in [1] came to 2.4 nM; in assay [3] it was 0.02 nM; in [5], 1 nM; in assay [6], 0.32 nM; in [7], 2.3 nM; in assay [8], 0.58 nM. In addition, the Kd in assay [9] turned out to be 1.8 nM; in assay [10], 0.86 nM; in [11] it was 1.8 nM; in assay [12], 2.5 nM; in assay [13], 2.1 nM; in [14], 1 nM. Also, the koff turned out to be 5.5e-05 s⁻¹ in assay [1]; 2.8e-06 s⁻¹ in assay [3]; 1.9e-05 s⁻¹ in assay [5]; 7.8e-05 s⁻¹ in assay [6]; 7.9e-05 s⁻¹ in assay [7]; 3.8e-05 s⁻¹ in assay [8]. Moreover, the koff in [9] worked out at 0.00017 s⁻¹; in [10] it was 0.00018 s⁻¹; in assay [11], 0.00015 s⁻¹; in assay [12], 0.00021 s⁻¹; in assay [13] it was 0.00019 s⁻¹; in [14], 0.00035 s⁻¹. Further, the kon was found to be 23000 M⁻¹ s⁻¹ in assay [1]; 140000 M⁻¹ s⁻¹ in assay [3]; 19000 M⁻¹ s⁻¹ in [5]; 250000 M⁻¹ s⁻¹ in assay [6]; 34000 M⁻¹ s⁻¹ in assay [7]; 65000 M⁻¹ s⁻¹ in assay [8]. Further, the kon is 94000 M⁻¹ s⁻¹ in assay [9]; 210000 M⁻¹ s⁻¹ in assay [10]; 90000 M⁻¹ s⁻¹ in assay [11]; 83000 M⁻¹ s⁻¹ in assay [12]; 91000 M⁻¹ s⁻¹ in [13]; 360000 M⁻¹ s⁻¹ in assay [14].

B5: BMP15 (ligand)
chain: QADGISAEVTASSSKHSGPENNQCSLHPFQISFRQLGWDHWIIAPPFYTPNYCKGTCLRVLRDGLNSPNHAIIQNLINQLVDQSVPRPSCVPYKYVPISVLMIEANGSILYKEYEGMIAESCTCR
In assay [13], B5 gave a Kd of 6.3 nM, an off-rate (koff) of 0.0021 s⁻¹ and a kon of 330000 M⁻¹ s⁻¹.
